Experiment [1] concerns the target Hoc- Soc- bacteriophage T4 capsid (Soc binding sites) (bacteriophage T4) (UniProt P04535).
For experiment [2] the target is unchanged. The experiment in a line: in vitro binding to Hoc- Soc- T4 phage, SDS-PAGE.

Take “F1mutV-Soc (66 kDa) recombinant protein with RB49 Soc”: in experiment [1], the dissociation constant Kd (in general, the free concentration of one partner at which half of the binding sites on the other are occupied at equilibrium, for simple one-to-one binding) is 0.298 µM and the percent occupancy of the 870 Soc binding sites was 75%. In addition, the ratio of antigen molecules to Soc binding sites at saturation (antigen molecules : Soc binding sites) in experiment [2] stood at 20.

Turning to “Soc-PA (93 kDa) recombinant protein with RB49 Soc”, in experiment [1], the Kd turned out to be 0.737 µM and the percent occupancy of the 870 Soc binding sites amounted to 42%. Besides, the ratio of antigen molecules to Soc binding sites at saturation (antigen molecules : Soc binding sites) in experiment [2] was 20.

Values taken from patent US20180264102A1.
